Paper doi:10.1101/2020.09.30.318972 (bioRxiv, 2020)

Assays:
[1] = target: T1, SARS-CoV-2 spike protein receptor-binding domain (SARS-CoV-2, UniProt P0DTC2); assay: SPR
[2] = target: T1, SARS-CoV-2 spike protein …; assay: crystal structure

B1: LY-CoV555 (antibody, V domains shown)
VH: QVQLVQSGAEVKKPGSSVKVSCKASGGTFSNYAISWVRQAPGQGLEWMGRIIPILGIANYAQKFQGRVTITADKSTSTAYMELSSLRSEDTAVYYCARGYYEARHYYYYYAMDVWGQGTAVTVSS
VL: not shown
- binding result [1]: binds

B2: LY-CoV555 Fab (Fab, V domains shown)
VH: QVQLVQSGAEVKKPGSSVKVSCKASGGTFSNYAISWVRQAPGQGLEWMGRIIPILGIANYAQKFQGRVTITADKSTSTAYMELSSLRSEDTAVYYCARGYYEARHYYYYYAMDVWGQGTAVTVSS
VL: not shown
- binding result [2]: binds
